This data set has as its target T1, SsOGT C29A C29A (Sulfolobus solfataricus) (UniProt Q97VW7).
T1 sequence: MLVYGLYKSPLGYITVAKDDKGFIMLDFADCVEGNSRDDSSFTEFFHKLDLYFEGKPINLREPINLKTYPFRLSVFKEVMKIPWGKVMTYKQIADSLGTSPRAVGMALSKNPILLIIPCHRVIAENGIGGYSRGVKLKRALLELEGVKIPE
Kind of data set: competition. Particulars: O6-methylguanine at position 26 of strand 1; EMSA: 0-25 uM protein, 0.2 uM probe, 37 C 10 min, 10 ul, buffer as ref. 17, 8% native PAGE in 1X TBE pH 8.3; competition: BG-VG assay, 50 C under ref. …. A general note: Mobility shift assays separate free from complexed probe on a gel.

In general, Ki refers to the dissociation constant of the complex between target and ligand, obtained from inhibition or displacement. “GGCAGTAGGCCTAGCATGACAATCTGCATTGGTGATCACGG / CGCTCATCCACAATGCAGATTGTCATGCTAGGCCTACTGCC [ds-Fwdm26]” returned a Ki of 1.03 µM.

These data come from paper PMC4605297.
